# Assay results reported in publication doi:10.1101/2025.05.16.654432.
# Assays:
# Trigger Factor = Trigger Factor (UniProt P0A850); experiment: high-speed atomic force microscopy
# [1] = biological target: ribosome-nascent chain complex (RNC) stalled on mTFP1-KCNQ helices A, TW, B-SecM arrest peptide (UniProt P0ADZ0); experiment: high-speed atomic force microscopy
# Sequence of Trigger Factor (P0A850 whole entry): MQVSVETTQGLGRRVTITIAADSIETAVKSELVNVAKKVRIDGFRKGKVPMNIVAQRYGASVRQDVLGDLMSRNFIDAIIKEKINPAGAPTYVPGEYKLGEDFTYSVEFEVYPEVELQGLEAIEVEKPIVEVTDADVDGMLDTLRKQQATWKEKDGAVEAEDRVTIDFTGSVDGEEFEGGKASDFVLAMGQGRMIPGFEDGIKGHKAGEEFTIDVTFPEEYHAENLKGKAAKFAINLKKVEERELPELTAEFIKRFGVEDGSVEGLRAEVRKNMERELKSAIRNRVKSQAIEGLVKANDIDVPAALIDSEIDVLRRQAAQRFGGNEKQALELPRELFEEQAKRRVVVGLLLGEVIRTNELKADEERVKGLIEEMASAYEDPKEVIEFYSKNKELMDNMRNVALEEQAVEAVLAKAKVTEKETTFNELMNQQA
substance,measurement,setting,value
Trigger Factor (from UniProt P0A850 1-432) (natural protein),stoichiometry N,Trigger Factor,2
same,duration of binding,[1],> 30 s
same,"duration of binding (second interaction, near bL17)",[1],< 15 s
same,dwell time constant τ (first TF binding event),[1],8 s
same,dwell time constant τ (first TF molecule),[1],8.3 s
same,"dwell time constant τ (second TF molecule, near bL17)",[1],3.9 s
same,stoichiometry N,[1],2
